{"source": "paper PMC2199314", "about": "(The Journal of Cell Biology, 2001)", "target": "taxol-stabilized bovine brain microtubules (bovine, UniProt Q6B856 1-445)"}
{"binder": "Escherichia coli–purified Dam1p (natural protein, S. cerevisiae, UniProt P53267 1-343, looked up) MSEDKAKLGTTRSATEYRLSIGSAPTSRRSSMGESSSLMKFADQEGLTSSVGEYNENTIQQLLLPKIRELSDSIITLDSNFTRLNFIHESLADLNESLGSLLYGIMSNSWCVEFSQAPHDIQDDLIAIKQLKSLEDEKNNLVMELSNMERGIKRKKDEQGENDLAKASQNKQFNQPLFPSSQVRKYRSYDNRDKRKPSKIGNNLQVENEEDYEDDTSSEASFVLNPTNIGMSKSSQGHVTKTTRLNNNTNSKLRRKSILHTIRNSIASGADLPIENDNVVNLGDLHPNNRISLGSGAARVVNGPVTKNRNSMFSGRAERKPTESRHSVAKKTEKKINTRPPFR", "values": [{"measurement": "Kd", "value": "~500", "unit": "nM"}]}
